Reference: patent US20220242962A1 (APTEVO RESEARCH AND DEVELOPMENT, published 2022)
Where a chain is given by its changes, count along the chain named. Names may count otherwise. Each block holds one binder with its values, some of them ahead of it.

Tests used:
Full-length Cyno 4-1BB = target: T1, Full-length Cyno 4-1BB (cynomolgus monkey, UniProt Q07011 24-255 (human entry)); experiment: flow cytometry on Jurkat cells transfected with cynomolgus 4-1BB, goat anti-human Fc secondary antibody, MFI (Mean)
T1 construct: on Jurkat or CHO cells; also called FOB006; cynomolgus 4-1BB
T1 chain: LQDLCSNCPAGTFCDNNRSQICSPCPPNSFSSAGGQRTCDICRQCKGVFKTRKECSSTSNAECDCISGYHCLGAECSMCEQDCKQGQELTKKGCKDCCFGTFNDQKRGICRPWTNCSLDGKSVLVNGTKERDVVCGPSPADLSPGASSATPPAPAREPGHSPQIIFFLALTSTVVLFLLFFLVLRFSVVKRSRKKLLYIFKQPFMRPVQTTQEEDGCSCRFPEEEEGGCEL
Method: (§1) Serial dilutions of ADAPTIR™ constructs were incubated with transfected target cells and subsequently labelled with a fluorescently-conjugated goat-a-human Fc secondary antibody. […] (See Example 25.)

Full-length Human OX40 = target: T2, Full-length Human OX40 (human, UniProt P43489 29-277); experiment: cell-based or functional assay
T2 sequence: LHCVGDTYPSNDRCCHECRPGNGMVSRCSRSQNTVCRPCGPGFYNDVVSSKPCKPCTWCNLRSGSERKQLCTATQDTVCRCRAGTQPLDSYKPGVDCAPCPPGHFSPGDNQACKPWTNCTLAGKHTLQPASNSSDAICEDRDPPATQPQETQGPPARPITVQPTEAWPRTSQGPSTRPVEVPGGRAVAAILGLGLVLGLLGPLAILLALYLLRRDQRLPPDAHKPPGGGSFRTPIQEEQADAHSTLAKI

Full-length Human 4-1BB = Full-length Human 4-1BB (human, UniProt Q07011 24-255); experiment: cell-based or functional assay
Full-length Cyno OX40 = target: T3, Full-length Cyno OX40 (cynomolgus monkey, UniProt P43489 29-277 (human entry)); experiment: flow cytometry on CHOK1SV cells transfected with cynomolgus OX40, goat anti-human Fc secondary antibody, MFI (Mean)
T3 construct: on CHO-K1SV cells; also called OXF004; cynomolgus OX40
T3 chain: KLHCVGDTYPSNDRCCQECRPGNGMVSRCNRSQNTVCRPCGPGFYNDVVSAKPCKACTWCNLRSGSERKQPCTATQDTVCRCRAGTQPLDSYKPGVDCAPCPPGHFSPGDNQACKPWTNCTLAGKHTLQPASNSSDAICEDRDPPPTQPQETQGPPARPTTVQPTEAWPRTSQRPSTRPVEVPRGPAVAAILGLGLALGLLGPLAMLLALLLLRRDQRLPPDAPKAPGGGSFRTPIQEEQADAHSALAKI
Method: as §1

Cyno OX40-AFH = target: T4, Cyno OX40-AFH (cynomolgus monkey); experiment: SPR (Biacore 8K), construct captured, monovalent ECD
T4 construct: entry includes the tags; also called OXF005; cyno OX40 ECD
T4 chain: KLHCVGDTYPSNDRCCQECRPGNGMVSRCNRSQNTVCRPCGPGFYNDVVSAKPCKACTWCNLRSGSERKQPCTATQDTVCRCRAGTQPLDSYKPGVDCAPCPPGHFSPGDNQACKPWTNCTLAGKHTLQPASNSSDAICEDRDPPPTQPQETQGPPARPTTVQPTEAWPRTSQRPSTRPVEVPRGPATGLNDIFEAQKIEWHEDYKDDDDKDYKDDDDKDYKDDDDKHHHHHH

Human 4-1BB ECD-AFH = target: T5, Human 4-1BB ECD-AFH (human); experiment: as above
T5 construct: entry includes the tags; also called FOB003; HUMAN CD137 ECD-AVI-FLAG-HIS

Cyno 4-1BB ECD-AFH = target: T6, Cyno 4-1BB ECD-AFH (cynomolgus monkey); experiment: as above
T6 construct: entry includes the tags; also called FOB004; Cyno CD137 ECD-avi-flag-his
T6 chain: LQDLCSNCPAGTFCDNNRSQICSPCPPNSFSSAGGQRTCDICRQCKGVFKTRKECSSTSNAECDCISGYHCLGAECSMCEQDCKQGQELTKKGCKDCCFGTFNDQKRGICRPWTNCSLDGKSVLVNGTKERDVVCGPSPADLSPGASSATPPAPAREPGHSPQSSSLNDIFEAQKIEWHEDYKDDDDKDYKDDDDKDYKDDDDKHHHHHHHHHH

Human OX40 ECD-AFH = target: T7, Human OX40 ECD-AFH (human); experiment: as above
T7 construct: ECD'; entry includes the C-terminal tags; also called OXF003; Human OX40 ECD-avi-flag-his
T7 chain: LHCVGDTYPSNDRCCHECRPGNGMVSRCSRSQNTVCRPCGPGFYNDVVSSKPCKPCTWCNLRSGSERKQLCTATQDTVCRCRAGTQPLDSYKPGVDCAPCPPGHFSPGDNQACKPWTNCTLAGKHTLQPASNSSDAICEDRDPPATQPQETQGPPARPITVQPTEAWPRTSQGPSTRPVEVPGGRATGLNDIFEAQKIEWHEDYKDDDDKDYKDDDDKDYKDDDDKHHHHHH
Wherever 4-1BB Reporter Assay Max induction is given: unit not given here.
Wherever OX40 Reporter Assay Max induction is given: unit not given here.

Full-length Human 4-1BB, sequence (Q07011 24-255): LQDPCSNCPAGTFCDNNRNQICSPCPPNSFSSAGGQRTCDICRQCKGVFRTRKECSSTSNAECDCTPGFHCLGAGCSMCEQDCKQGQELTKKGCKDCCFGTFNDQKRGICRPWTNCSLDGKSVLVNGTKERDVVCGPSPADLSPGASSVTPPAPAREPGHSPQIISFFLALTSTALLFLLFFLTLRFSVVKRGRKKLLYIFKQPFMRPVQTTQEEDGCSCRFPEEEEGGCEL

EC50 (read off the curve) (Full-length Cyno 4-1BB): ~0.3 nM | OX40 Reporter Assay EC50 (Full-length Human OX40): 0.016 nM | OX40 Reporter Assay Max induction (Full-length Human OX40): 5.78e+06 | 4-1BB Reporter Assay EC50 (Full-length Human 4-1BB): 0.021 nM | 4-1BB Reporter Assay Max induction (Full-length Human 4-1BB): 1.4e+06 | EC50 (read off the curve) (Full-length Cyno OX40): 1 to 2 nM | Kd (Cyno OX40-AFH): < 1 nM | koff (Cyno OX40-AFH): 0.00023 s⁻¹ | kon (Cyno OX40-AFH): 1.1e+06 M⁻¹ s⁻¹ | Kd (Human 4-1BB ECD-AFH): 16 nM | koff (Human 4-1BB ECD-AFH): 0.0047 s⁻¹ | kon (Human 4-1BB ECD-AFH): 290000 M⁻¹ s⁻¹ | Kd (Cyno 4-1BB ECD-AFH): 75 nM | koff (Cyno 4-1BB ECD-AFH): 0.0074 s⁻¹ | kon (Cyno 4-1BB ECD-AFH): 98000 M⁻¹ s⁻¹ | Kd (Human OX40 ECD-AFH): < 1 nM | koff (Human OX40 ECD-AFH): 0.00025 s⁻¹ | kon (Human OX40 ECD-AFH): 1e+06 M⁻¹ s⁻¹
B1: FXX01102 (bispecific antibody)
chain: EVQLVQSGAEVKKPGASVKVSCKASGYTFTSYWMNWVRQAPGQGLEWMGNIYPSGGSTNYAQKFQGRVTMTVDTSTSTVYMELSSLRSEDTAVYYCASFSDGYYAYAMDYWGQGTLVTVSSGGGGSGGGGSGGGGSGGGGSEIVMTQSPATLSLSPGERATLSCRASQSVSSYLNWYQQKPGQAPRLLIYYASRRHTGIPARFSGSGSGTDFTLTISSLQPEDFAVYYCQQGYNLPYTFGQGTKVEIKEPKSSDKTHTCPPCPAPPAAAPSVFLFPPKPKDTLMISRTPEVTCVVVDVSHEDPEVKFNWYVDGVEVHNAKTKPREEQYNSTYRVVSVLTVLHQDWLNGKEYKCAVSNKALPAPIEKTISKAKGQPREPQVYTLPPSRDELTKNQVSLTCLVKGFYPSDIAVEWESNGQPENNYKTTPPVLDSDGSFFLYSKLTVDKSRWQQGNVFSCSVMHEALHNHYTQKSLSLSPGGGGSPSSYVLTQPPSVSVAPGKTARITCGGNNIGSKSVNWFQQKPGQAPVLVVYDDSGRPSGIPERFSGSTSGNTATLTISRVEAGDEADYYCQVWDSSSDHVVFGGGTKLTVLGGGGSGGGGSGGGGSGGGGSQVQLVESGGGVVQPGRSLRLSCAASGFTLSYYGMHWVRQAPGKGLEWVAAISHDGSDKYYADSVKGRFTISRDNSKNRLYLQMNSLRAEDTAVYYCSNDQFDPWGQGTLVTVSSR
notes: ADAPTIR anti-4-1BB (HL) x anti-OX40 with Q17K and T86R; PAA (del) Fc; also called FX01102

EC50 (read off the curve) (Full-length Cyno 4-1BB): ~0.3 nM | OX40 Reporter Assay EC50 (Full-length Human OX40): 0.017 nM | OX40 Reporter Assay Max induction (Full-length Human OX40): 6.09e+06 | 4-1BB Reporter Assay EC50 (Full-length Human 4-1BB): 0.019 nM | 4-1BB Reporter Assay Max induction (Full-length Human 4-1BB): 1.43e+06 | EC50 (read off the curve) (Full-length Cyno OX40): 1 to 2 nM | Kd (Cyno OX40-AFH): < 1 nM | koff (Cyno OX40-AFH): 0.00029 s⁻¹ | kon (Cyno OX40-AFH): 1.1e+06 M⁻¹ s⁻¹ | Kd (Human 4-1BB ECD-AFH): 17 nM | koff (Human 4-1BB ECD-AFH): 0.0045 s⁻¹ | kon (Human 4-1BB ECD-AFH): 270000 M⁻¹ s⁻¹ | Kd (Cyno 4-1BB ECD-AFH): 81 nM | koff (Cyno 4-1BB ECD-AFH): 0.008 s⁻¹ | kon (Cyno 4-1BB ECD-AFH): 99000 M⁻¹ s⁻¹ | Kd (Human OX40 ECD-AFH): < 1 nM | koff (Human OX40 ECD-AFH): 0.00038 s⁻¹ | kon (Human OX40 ECD-AFH): 930000 M⁻¹ s⁻¹
B2: FXX01111 (bispecific antibody)
chain: B1 chain with K500Q, I541V, E543N, R690T
notes: ADAPTIR anti-4-1BB x anti-OX40, pI variant; PAA (del) Fc

EC50 (read off the curve) (Full-length Cyno 4-1BB): ~0.3 nM | OX40 Reporter Assay EC50 (Full-length Human OX40): 0.019 nM | OX40 Reporter Assay Max induction (Full-length Human OX40): 6.29e+06 | 4-1BB Reporter Assay EC50 (Full-length Human 4-1BB): 0.018 nM | 4-1BB Reporter Assay Max induction (Full-length Human 4-1BB): 1.36e+06 | EC50 (read off the curve) (Full-length Cyno OX40): 1 to 2 nM | Kd (Cyno OX40-AFH): < 1 nM | koff (Cyno OX40-AFH): 0.00021 s⁻¹ | kon (Cyno OX40-AFH): 1.1e+06 M⁻¹ s⁻¹ | Kd (Human 4-1BB ECD-AFH): 16 nM | koff (Human 4-1BB ECD-AFH): 0.0041 s⁻¹ | kon (Human 4-1BB ECD-AFH): 260000 M⁻¹ s⁻¹ | Kd (Cyno 4-1BB ECD-AFH): 72 nM | koff (Cyno 4-1BB ECD-AFH): 0.0074 s⁻¹ | kon (Cyno 4-1BB ECD-AFH): 100000 M⁻¹ s⁻¹ | Kd (Human OX40 ECD-AFH): < 1 nM | koff (Human OX40 ECD-AFH): 0.0003 s⁻¹ | kon (Human OX40 ECD-AFH): 980000 M⁻¹ s⁻¹
B3: FXX01115 (bispecific antibody)
chain: B1 chain with K500Q, I541V, E543N
notes: as for B2
